Columns and labels:
[1] = target: E22P-Aβ42 dimer; test: SEC; Superdex75 10/300GL, PBS pH 7.4, 0.6 mL/min; Aβ solution 25 μM incubated at 37 °C for the indicated duration, supernatant after centrifugation (17,860 x g, 4 °C, 10 min) analysed; dextran standards
[2] = target: E22P-Aβ42; test: as above

Substance	stoichiometry N [1]	stoichiometry N [2]
E22P-Aβ42 dimer (peptide)	6 to 8	
E22P-Aβ42 (peptide)		6 to 8

From article PMC4931470
